Measured values as given in US20260001928A1 (CORTERIA PHARMACEUTICALS, priority 2022, published 2026).
*1 amine or outer side, *2 acyl side, *3 side chain or, on linkers, in order; H or OH if unused. Where no end group is shown, it is not given here. Side-chain parts run from the residue outwards. [ ]: non-standard residue; d: D form. The star is where a group is joined. C18 diacid = O=C(O)CCCCCCCCCCCCCCCCC(=O)*; C16 diacid = O=C(O)CCCCCCCCCCCCCCC(=O)*; γGlu = O=C(O)[C@H](CCC(=O)[*:2])N[*:1]; NMeI = CC[C@H](C)[C@H](NC)C(=O)O; Pentanoyl = CCCCC(=O)*; AEEA = NCCOCCOCC(=O)O; Aib = CC(C)(N)C(=O)O

T1: CRF1R receptor (UniProt P34998 24-415, limits assumed)
T1 sequence (looked up): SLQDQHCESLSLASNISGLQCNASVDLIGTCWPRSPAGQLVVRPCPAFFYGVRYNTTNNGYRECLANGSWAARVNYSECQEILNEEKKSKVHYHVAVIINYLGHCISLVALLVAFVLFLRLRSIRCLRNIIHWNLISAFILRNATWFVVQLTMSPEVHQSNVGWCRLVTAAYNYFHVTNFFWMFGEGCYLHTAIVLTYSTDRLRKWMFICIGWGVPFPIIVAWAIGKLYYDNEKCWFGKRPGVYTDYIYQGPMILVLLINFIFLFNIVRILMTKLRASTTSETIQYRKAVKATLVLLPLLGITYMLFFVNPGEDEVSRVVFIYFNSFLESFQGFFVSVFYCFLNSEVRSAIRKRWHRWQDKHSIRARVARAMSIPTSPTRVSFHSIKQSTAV

B1: SEQ ID NO 32 (peptide)
peptide: Pentanoyl-VLSLD[dV]PIKLK([AEEA-AEEA-γGlu-γGlu-C18 diacid])QILLKQERQKKQREQAEKN[Aib]QILEQV-NH2
SMILES: CCCCC(=O)N[C@H](C(=O)N[C@@H](CC(C)C)C(=O)N[C@@H](CO)C(=O)N[C@@H](CC(C)C)C(=O)N[C@@H](CC(=O)O)C(=O)N[C@@H](C(=O)N1CCC[C@H]1C(=O)N[C@H](C(=O)N[C@@H](CCCCN)C(=O)N[C@@H](CC(C)C)C(=O)N[C@@H](CCCCNC(=O)COCCOCCNC(=O)COCCOCCNC(=O)CC[C@H](NC(=O)CC[C@H](NC(=O)CCCCCCCCCCCCCCCCC(=O)O)C(=O)O)C(=O)O)C(=O)N[C@@H](CCC(N)=O)C(=O)N[C@H](C(=O)N[C@@H](CC(C)C)C(=O)N[C@@H](CC(C)C)C(=O)N[C@@H](CCCCN)C(=O)N[C@@H](CCC(N)=O)C(=O)N[C@@H](CCC(=O)O)C(=O)N[C@@H](CCCNC(=N)N)C(=O)N[C@@H](CCC(N)=O)C(=O)N[C@@H](CCCCN)C(=O)N[C@@H](CCCCN)C(=O)N[C@@H](CCC(N)=O)C(=O)N[C@@H](CCCNC(=N)N)C(=O)N[C@@H](CCC(=O)O)C(=O)N[C@@H](CCC(N)=O)C(=O)N[C@@H](C)C(=O)N[C@@H](CCC(=O)O)C(=O)N[C@@H](CCCCN)C(=O)N[C@@H](CC(N)=O)C(=O)NC(C)(C)C(=O)N[C@@H](CCC(N)=O)C(=O)N[C@H](C(=O)N[C@@H](CC(C)C)C(=O)N[C@@H](CCC(=O)O)C(=O)N[C@@H](CCC(N)=O)C(=O)N[C@H](C(N)=O)C(C)C)[C@@H](C)CC)[C@@H](C)CC)[C@@H](C)CC)C(C)C)C(C)C
B2: SEQ ID NO 30 (peptide)
peptide: Ac-IVLSLD[dV]PIKLK([AEEA-AEEA-γGlu-γGlu-C18 diacid])QILLKQERQKKQREQAEKN[Aib]QILEQV-NH2
SMILES: CC[C@H](C)[C@H](NC(C)=O)C(=O)N[C@H](C(=O)N[C@@H](CC(C)C)C(=O)N[C@@H](CO)C(=O)N[C@@H](CC(C)C)C(=O)N[C@@H](CC(=O)O)C(=O)N[C@@H](C(=O)N1CCC[C@H]1C(=O)N[C@H](C(=O)N[C@@H](CCCCN)C(=O)N[C@@H](CC(C)C)C(=O)N[C@@H](CCCCNC(=O)COCCOCCNC(=O)COCCOCCNC(=O)CC[C@H](NC(=O)CC[C@H](NC(=O)CCCCCCCCCCCCCCCCC(=O)O)C(=O)O)C(=O)O)C(=O)N[C@@H](CCC(N)=O)C(=O)N[C@H](C(=O)N[C@@H](CC(C)C)C(=O)N[C@@H](CC(C)C)C(=O)N[C@@H](CCCCN)C(=O)N[C@@H](CCC(N)=O)C(=O)N[C@@H](CCC(=O)O)C(=O)N[C@@H](CCCNC(=N)N)C(=O)N[C@@H](CCC(N)=O)C(=O)N[C@@H](CCCCN)C(=O)N[C@@H](CCCCN)C(=O)N[C@@H](CCC(N)=O)C(=O)N[C@@H](CCCNC(=N)N)C(=O)N[C@@H](CCC(=O)O)C(=O)N[C@@H](CCC(N)=O)C(=O)N[C@@H](C)C(=O)N[C@@H](CCC(=O)O)C(=O)N[C@@H](CCCCN)C(=O)N[C@@H](CC(N)=O)C(=O)NC(C)(C)C(=O)N[C@@H](CCC(N)=O)C(=O)N[C@H](C(=O)N[C@@H](CC(C)C)C(=O)N[C@@H](CCC(=O)O)C(=O)N[C@@H](CCC(N)=O)C(=O)N[C@H](C(N)=O)C(C)C)[C@@H](C)CC)[C@@H](C)CC)[C@@H](C)CC)C(C)C)C(C)C
B3: SEQ ID NO 122 (peptide)
peptide: Pentanoyl-VLSLD[dV]PIKLK([AEEA-AEEA-γGlu-C18 diacid])KILLEQEKQKKQREQAETNAQILAQV-NH2
SMILES: CCCCC(=O)N[C@H](C(=O)N[C@@H](CC(C)C)C(=O)N[C@@H](CO)C(=O)N[C@@H](CC(C)C)C(=O)N[C@@H](CC(=O)O)C(=O)N[C@@H](C(=O)N1CCC[C@H]1C(=O)N[C@H](C(=O)N[C@@H](CCCCN)C(=O)N[C@@H](CC(C)C)C(=O)N[C@@H](CCCCNC(=O)COCCOCCNC(=O)COCCOCCNC(=O)CC[C@H](NC(=O)CCCCCCCCCCCCCCCCC(=O)O)C(=O)O)C(=O)N[C@@H](CCCCN)C(=O)N[C@H](C(=O)N[C@@H](CC(C)C)C(=O)N[C@@H](CC(C)C)C(=O)N[C@@H](CCC(=O)O)C(=O)N[C@@H](CCC(N)=O)C(=O)N[C@@H](CCC(=O)O)C(=O)N[C@@H](CCCCN)C(=O)N[C@@H](CCC(N)=O)C(=O)N[C@@H](CCCCN)C(=O)N[C@@H](CCCCN)C(=O)N[C@@H](CCC(N)=O)C(=O)N[C@@H](CCCNC(=N)N)C(=O)N[C@@H](CCC(=O)O)C(=O)N[C@@H](CCC(N)=O)C(=O)N[C@@H](C)C(=O)N[C@@H](CCC(=O)O)C(=O)N[C@H](C(=O)N[C@@H](CC(N)=O)C(=O)N[C@@H](C)C(=O)N[C@@H](CCC(N)=O)C(=O)N[C@H](C(=O)N[C@@H](CC(C)C)C(=O)N[C@@H](C)C(=O)N[C@@H](CCC(N)=O)C(=O)N[C@H](C(N)=O)C(C)C)[C@@H](C)CC)[C@@H](C)O)[C@@H](C)CC)[C@@H](C)CC)C(C)C)C(C)C
B4: SEQ ID NO 31 (peptide)
peptide: [NMeI]VLSLD[dV]PIKLK([AEEA-AEEA-γGlu-γGlu-C18 diacid])QILLKQERQKKQREQAEKN[Aib]QILEQV-NH2
modifications: N-terminus assumed
SMILES: CC[C@H](C)[C@H](NC)C(=O)N[C@H](C(=O)N[C@@H](CC(C)C)C(=O)N[C@@H](CO)C(=O)N[C@@H](CC(C)C)C(=O)N[C@@H](CC(=O)O)C(=O)N[C@@H](C(=O)N1CCC[C@H]1C(=O)N[C@H](C(=O)N[C@@H](CCCCN)C(=O)N[C@@H](CC(C)C)C(=O)N[C@@H](CCCCNC(=O)COCCOCCNC(=O)COCCOCCNC(=O)CC[C@H](NC(=O)CC[C@H](NC(=O)CCCCCCCCCCCCCCCCC(=O)O)C(=O)O)C(=O)O)C(=O)N[C@@H](CCC(N)=O)C(=O)N[C@H](C(=O)N[C@@H](CC(C)C)C(=O)N[C@@H](CC(C)C)C(=O)N[C@@H](CCCCN)C(=O)N[C@@H](CCC(N)=O)C(=O)N[C@@H](CCC(=O)O)C(=O)N[C@@H](CCCNC(=N)N)C(=O)N[C@@H](CCC(N)=O)C(=O)N[C@@H](CCCCN)C(=O)N[C@@H](CCCCN)C(=O)N[C@@H](CCC(N)=O)C(=O)N[C@@H](CCCNC(=N)N)C(=O)N[C@@H](CCC(=O)O)C(=O)N[C@@H](CCC(N)=O)C(=O)N[C@@H](C)C(=O)N[C@@H](CCC(=O)O)C(=O)N[C@@H](CCCCN)C(=O)N[C@@H](CC(N)=O)C(=O)NC(C)(C)C(=O)N[C@@H](CCC(N)=O)C(=O)N[C@H](C(=O)N[C@@H](CC(C)C)C(=O)N[C@@H](CCC(=O)O)C(=O)N[C@@H](CCC(N)=O)C(=O)N[C@H](C(N)=O)C(C)C)[C@@H](C)CC)[C@@H](C)CC)[C@@H](C)CC)C(C)C)C(C)C
B5: SEQ ID NO 5 (peptide)
peptide: [NMeI]VLSLD[dV]PIKLK([γGlu-C16 diacid])QILLKQERQKKQREQAEKNKQILEQV-NH2
modifications: N-terminus assumed
SMILES: CC[C@H](C)[C@H](NC)C(=O)N[C@H](C(=O)N[C@@H](CC(C)C)C(=O)N[C@@H](CO)C(=O)N[C@@H](CC(C)C)C(=O)N[C@@H](CC(=O)O)C(=O)N[C@@H](C(=O)N1CCC[C@H]1C(=O)N[C@H](C(=O)N[C@@H](CCCCN)C(=O)N[C@@H](CC(C)C)C(=O)N[C@@H](CCCCNC(=O)CC[C@H](NC(=O)CCCCCCCCCCCCCCC(=O)O)C(=O)O)C(=O)N[C@@H](CCC(N)=O)C(=O)N[C@H](C(=O)N[C@@H](CC(C)C)C(=O)N[C@@H](CC(C)C)C(=O)N[C@@H](CCCCN)C(=O)N[C@@H](CCC(N)=O)C(=O)N[C@@H](CCC(=O)O)C(=O)N[C@@H](CCCNC(=N)N)C(=O)N[C@@H](CCC(N)=O)C(=O)N[C@@H](CCCCN)C(=O)N[C@@H](CCCCN)C(=O)N[C@@H](CCC(N)=O)C(=O)N[C@@H](CCCNC(=N)N)C(=O)N[C@@H](CCC(=O)O)C(=O)N[C@@H](CCC(N)=O)C(=O)N[C@@H](C)C(=O)N[C@@H](CCC(=O)O)C(=O)N[C@@H](CCCCN)C(=O)N[C@@H](CC(N)=O)C(=O)N[C@@H](CCCCN)C(=O)N[C@@H](CCC(N)=O)C(=O)N[C@H](C(=O)N[C@@H](CC(C)C)C(=O)N[C@@H](CCC(=O)O)C(=O)N[C@@H](CCC(N)=O)C(=O)N[C@H](C(N)=O)C(C)C)[C@@H](C)CC)[C@@H](C)CC)[C@@H](C)CC)C(C)C)C(C)C
B6: SEQ ID NO 42 (peptide)
peptide: Ac-IVLSLD[dV]PIKLK([AEEA-AEEA-γGlu-C16 diacid])KILLEQEKQKKQREQAETN[Aib]QILAQV-NH2
SMILES: CC[C@H](C)[C@H](NC(C)=O)C(=O)N[C@H](C(=O)N[C@@H](CC(C)C)C(=O)N[C@@H](CO)C(=O)N[C@@H](CC(C)C)C(=O)N[C@@H](CC(=O)O)C(=O)N[C@@H](C(=O)N1CCC[C@H]1C(=O)N[C@H](C(=O)N[C@@H](CCCCN)C(=O)N[C@@H](CC(C)C)C(=O)N[C@@H](CCCCNC(=O)COCCOCCNC(=O)COCCOCCNC(=O)CC[C@H](NC(=O)CCCCCCCCCCCCCCC(=O)O)C(=O)O)C(=O)N[C@@H](CCCCN)C(=O)N[C@H](C(=O)N[C@@H](CC(C)C)C(=O)N[C@@H](CC(C)C)C(=O)N[C@@H](CCC(=O)O)C(=O)N[C@@H](CCC(N)=O)C(=O)N[C@@H](CCC(=O)O)C(=O)N[C@@H](CCCCN)C(=O)N[C@@H](CCC(N)=O)C(=O)N[C@@H](CCCCN)C(=O)N[C@@H](CCCCN)C(=O)N[C@@H](CCC(N)=O)C(=O)N[C@@H](CCCNC(=N)N)C(=O)N[C@@H](CCC(=O)O)C(=O)N[C@@H](CCC(N)=O)C(=O)N[C@@H](C)C(=O)N[C@@H](CCC(=O)O)C(=O)N[C@H](C(=O)N[C@@H](CC(N)=O)C(=O)NC(C)(C)C(=O)N[C@@H](CCC(N)=O)C(=O)N[C@H](C(=O)N[C@@H](CC(C)C)C(=O)N[C@@H](C)C(=O)N[C@@H](CCC(N)=O)C(=O)N[C@H](C(N)=O)C(C)C)[C@@H](C)CC)[C@@H](C)O)[C@@H](C)CC)[C@@H](C)CC)C(C)C)C(C)C

Key:
[1] = target: T1, CRF1R receptor; assay: cell-based or functional assay
[2] = target: human corticotropin-releasing factor 2a (CRF2a receptor) (human), Q13324; assay: cell-based or functional assay
Sequence of human corticotropin-releasing factor 2a (CRF2a receptor) (human), Q13324 (Q13324 20-411): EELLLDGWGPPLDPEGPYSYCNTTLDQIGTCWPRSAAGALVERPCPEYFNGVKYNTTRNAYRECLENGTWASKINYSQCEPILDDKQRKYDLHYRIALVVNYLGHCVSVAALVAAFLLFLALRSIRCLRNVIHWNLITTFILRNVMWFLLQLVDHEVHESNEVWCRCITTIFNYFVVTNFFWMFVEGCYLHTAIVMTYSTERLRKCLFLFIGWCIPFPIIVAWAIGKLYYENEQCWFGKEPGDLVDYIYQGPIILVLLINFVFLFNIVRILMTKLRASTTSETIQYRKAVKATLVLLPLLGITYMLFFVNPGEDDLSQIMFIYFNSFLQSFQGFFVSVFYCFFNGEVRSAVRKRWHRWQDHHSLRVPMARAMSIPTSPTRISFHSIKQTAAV

| EC50 [1] [nM] | Emax (% I) [1] [%] | EC50 [nM] (cAMP) [2] | Binder |
| --- | --- | --- | --- |
| > 250 | 5 | 1.04 | B1 |
| > 250 | 15 | 0.29 | B2 |
|  | 5 | 0.67 | B3 |
| > 250 | 14 | 0.23 | B4 |
| 158 | 48 | 0.09 | B5 |
|  | 1 | 3.08 | B6 |
